Test: soluble on expression in E. coli; label from the status in PepcDB or PDB records

Soluble on expression in E. coli, not soluble:
MGSDKIHHHHHHMRNMQEKGVSEKEILEELKKYRSLDLKYEDGNIFGSMCSNVLPITRKIVDIFLETNLGDPGLFKGTKLLEEKAVALLGSLLNNKDAYGHIVSGGTEANLMALRCIKNIWREKRRKGLSKNEHPKIIVPITAHFSFEKGREMMDLEYIYAPIKEDYTIDEKFVKDAVEDYDVDGIIGIAGTTELGTIDNIEELSKIAKENNIYIHVDAAFGGLVIPFLDDKYKKKGVNYKFDFSLGVDSITIDPHKMGHCPIPSGGILFKDIGYKRYLDVDAPYLTETRQATILGTRVGFGGACTYAVLRYLGREGQRKIVNECMENTLYLYKKLKENNFKPVIEPILNIVAIEDEDYKEVCKKLRDRGIYVSVCNCVKALRIVVMPHIKREHIDNFIEILNSIKRD
MGSDKIHHHHHHMRNVKIDEVDRLDRDVVALGNDYAQGFILPPHQHRRAQLLYGATGLMYVTTQDGEWVVPPQHAVWIPPETVHAVRFAGVTTRSLYIEPDCVAAFIKHRRCEVISVSPLLRQLLLEAVDLPPLYDSPRDRALIQLMLLELAAMPVREFDIPLPQHPALLALCQAFLLNPSIHDPAARWARALFMSPSTFRRHFLKQLGLSFSAWRQRACVVSALAWLIAGKPVNEVALSLGYDNASSFATMFRRVTGQPPSFYHPA
MGSDKIHHHHHHMRPDCTDFRQLFLDDVPMMDMRAPVEFAKGAFPGVVNLPLMNDQERQKVGTCYKQQGQAAAIALGHQLVSGATKQARLEAWAAFAKAHPDGYLYCFRGGLRSQIVQGWLRDEAGIQYPRVKGGYKAMRTFLLETTQQAVEQCDFVLVGGLTGTGKTDVLHQLDNVLDLEGHANHRGSSFGKRATAQPAQIDFENQLAIDVLKKRARGIGQFVLEDEGRIVGSCTVPLELYQGMQHYPLVWLEDSFTNRVERILRDYVVNLSAEFKAVHGEEDGPRLFAERMLQSMANIYKRLGGERHQRLSEMLREALQEQQRSGAVDLHRGWIEGLLNEYYDPMYAYQRAAKAERIEFAGDAVEVREYLKARALRQPRK
MGSDKIHHHHHHMRRKDATWILTAQCPSRLGTVDVVTRFLKECRCYITEQQSFDDRHGERFFIRTAFQPEETDFDADTFQAAFAARAAEFDMVFELTAPEARMPVVIMVSKADHCLNDLLYRYRTGQLPVTIRAVISNHPDLEPLVAWHDLPYYHLPITPETKAEQEAEVWRVIESTGAELVILARYMQVLSSELCEKLTGKAINIHHSLLPGFKGAKPYHQAFEKGVKLVGATAHYINDDLDEGPIITQGVEPVSHADDPEDLVAKGRDIECLTLARAVSLHLERRVFLHARRTVVFAR
MGSDKIHHHHHHMRRLPPLNALQIFATVARHRSFTRAADALCVTQGAISRQIQSLEAHYGFALFMRHARGLTLTVEGEQLLPVVVESFARIEDISLKLTRQRTDLALKVPTCVMRWVLPRIMRFQREHPDLHVQMTTTWRHDVDFQSEPFDAAIVYGMSPGPDVAAVPLFDERLTPVCAPDLLEGRPLARVEDLACHTLLHPTRDHRDWRRWLDYAGAAGVDPDRGPSFDSLDLATSAATQGFGVALGDLTLSEEDFAARRLAMPLDIVQRTGARYYFVYPESVAQQQKIQRFSAWLDANRD
MGSDKIHHHHHHMRVGIIGGGFGLAVQAPIINTHPKMNVSAISTMIRHQVPKNLSTADDSPVHYTDWTKMLDLEELDLVFVSSLPIYHFEMVKYALNKGIHVVCEKPFTMNSVESEELLRLSSDTNTKVFIDFEWRYHPARQKVKELISEVGDILHFEYHISASQYQKLQTNKRGWMGEKQKFGGMLGALGTHMVDCLRWLIQDEIITINGFIHTHVPEGPEELRDSDDAFFIHGKIEGNCTFSIQLISGIHHGFGSNLKVFGSLGTINLIDDKTLFFGKASESLEEIKIETYTQTIPPLSSEAKAYYPAFYPFLDKVYENIIFNKSDKDLPTIVDGHENQIIIDNVLSN
MGSDKIHHHHHHMRVRSVTEEDYLKIIQELVLYQDYAQLSDIAKSLQVKRQSARDEINHLIDLGMVKKIDRGKYVLTDQGDIEANIFLRKHRTAEVLLSQCVGIEWDAVDREAMGIEHGMTEEIIHRVIERFNAKRCPHGNPIPSPEGYVEKIDDVRITDLNETGDVIISRIIYETDEILNYLYANQILPGAKVKIIRTGFPLQIEKDGRLLSLDPSIAKAIRVSSIK
MGSDKIHHHHHHMRWNRMNPFGSYKKVVSARSTLKEVLKKAQDGGIVSTAFIYGLENNLLDGVIVADNAGEFKAVPKVATTPEEVLEAAGTKYTVCPNISVLKSAVREYGCEKIGVVGTPCQVRAVRKLMKYPVGFRHVPDKIALIIGIFCMENFPYYGLKLIVEEHCGVKMEDVVKMDIGKGKFWVYTRWGETKAIKLKETHPYEQIACHVCTDYTAELADISTGSVGSPDGWSTVFIRTAKGEEIFNKMVEDGYLEVKPIEEVKPGLGLVEKLALQKKEKNMKEIEHRKELGLPIPY
MGSDKIHHHHHHMRYIDLAEMCIADISSGKLVKNSRMPSLRNFRQQHSISMTTALNCYQYLESLGWILARPQSGYFVCGQRMANEKPELVAFKSIMTDPKLPVVKPYYQHGNSSACAIDSAHNTSANHSVYQPANKDIVGPLGVARISTDFIPLDKLQNSFRRALKRQGSNISFYPDIQGEKILRDTLSSHFKSYDFHIPSDELLITNGCMDAIQTAIEICTDFGDAVAISSPCFNGILDMLAALGRKVVEIPSTEQGIDLVQLEQHMKSNQIKAGLFCTSHMNPQGISMTALQKQHLVNLAQTYKIPIIEDDVYIELAHGKVMPLPAKHWDKHGYILWCGSVSKTIAAGYRLGWCWPGRFTEQYLQKRKYCNQGVSSPVQLGLADFISNGDYAKHLKKLRVAIQQHTLSYQRYLTKNLPVASKISDPSGGFVLWIQVPNLNGRKLLALATEGNIDIRIGEQFSTRDLYQDYFRVNTGFMITEGNDKDTREEVDSQINKLMKLVKVASSERI
MGSDKIHHHHHHMSAALSHWRRWPSVANYGKKRFDIHQSSLKKRQGLMTPHFFGFGSLVNTATHVYGNTRPARLEGWRRTWVRTPDRSMAFLSVTPAPGHVIEGLLAAVPNGDWAALDERETGYVRVDVTPQVAHDMAPAPQISLYQVPEESHDRNARDHKILLSYLDVVLRGYREVFGDTGAEAFMATTDGWDTPILNDRATPYYPRHQVMTPDEHALHDALIAEAGAQVLAGGE
MGSDKIHHHHHHMSAELPLVFSVTSGKGGVGKTNMSVNIACCLSRMGKRVVLLDADLGLANVDVVLGLAPPRNLFHLFHEGADLGSILCEMPYGFRILPASSGVGEMLSLSTGQKLDLLEAMDVLEDSVDYLLVDTGAGINDNVLYFNIAAQERIVVLTPEPTSLTDAYALIKVMKLNHGVEHFKVLVNMAGDMKAAREVFSRLYKACDHFLSGVSLDLLGYVPRDRTVRRAVVEQTPFCVLDSRSPASLAVQKVAETVQTWDVSASLDGNIKFFWKKLLFR
MGSDKIHHHHHHMSASSNRTIPVFQLYGETHQWPTPDLLHCESIAERSRLHDWHIRPHRHADLVHVLHIAHGDVNLTFEEGAQRLTGPLLIVVPAMTVHAFRFSRDVDGHIVTLAMPLARHIADTLHPQGQILARAAFYPLADQPERAPIATLVDQLDAEYRHPADGRDALLEALLNSLLVLASRRATRRQARPASRQHERGEAHLARFQQLIEAHYHQQPSIPEFAERLGISSAHLSAVCQRLAGRSAQQLLHERVLLEAKRHLTYTNMTIGQVAERLGFKEPAYFTRFFKRHVACSPKEFRQRQA
MGSDKIHHHHHHMSCIIPNIYSQPTDTNLWNILLSSGIPRHYQKGEFVFEKDQPSNGLICLKKGKVKVSSFFSEGSEKIFGILVAPALFGETETLDQGPRMVSATALTHVEIVAISGNKTKELIYTYPDIALSIIQSIGVKLRWTTLQAEDLSTQKIEYRLARLLLDFKHYGIFTSKNNDNCLMITHEELAHFIGTARSKVTTYLNEFAHKGLIRLRRGEIRILDTAGLNKYKYTHKSQA
MGSDKIHHHHHHMSDVKGKNMTKKKPVLKRFNYRLNKLHVKNLKGIKDFTLNFEKDKLVTGIVGINGSGKSTLIHALACAFKPIGKATSKDFNRLSHFFTPNKDASWEGSEFEIEFEFDELTIKPNSEPTKKLINHTEVYSKKQGKKVSRWLPIYGRRHERESAYIGLHDLATLSEDKNAGRYKEYETEDLAHEASDKIKEDLVYILGRNYNRLTTCLVKQKDKVHTLFGLVFNGVEYSEHSMGAGEKRLLTILSALHNPKLAKGGLLLIDEIDVLLHGMAFKRLIERIIKRANENKIEVIFSTHRETIIDFKNDLLIYGVLNTGKGVIPMPHTHPQVMQQLTGVRTVPIEIYVEDDLATSVIETLLYQKHATHYVNITKFGTWSNAFAILAGKILMDSDISETLCVLDGDVCNTIEERTSECQRHLNGDDKNEHRQSMLNHIVEFKLANIAPQGSGGSPEYNIKIMFESIESDDPRVVELQRYSREMQGLEDWHVYFDILAETSGIRTARDKVLEAISETGQWNDYIVEISNWLDEKLKIYLPVRVQEEENLVTV
MGSDKIHHHHHHMSEDIFDAIIVGAGLAGSVAALVLAREGAQVLVIERGNSAGAKNVTGGRLYAHSLEHIIPGFADSAPVERLITHEKLAFMTEKSAMTMDYCNGDETSPSQRSYSVLRSKFDAWLMEQAEEAGAQLITGIRVDNLVQRDGKVVGVEADGDVIEAKTVILADGVNSILAEKLGMAKRVKPTDVAVGVKELIELPKSVIEDRFQLQGNQGAACLFAGSPTDGLMGGGFLYTNENTLSLGLVCGLHHLHDAKKSVPQMLEDFKQHPAVAPLIAGGKLVEYSAHVVPEAGINMLPELVGDGVLIAGDAAGMCMNLGFTIRGMDLAIAAGEAAAKTVLSAMKSDDFSKQKLAEYRQHLESGPLRDMRMYQKLPAFLDNPRMFSGYPELAVGVARDLFTIDGSAPELMRKKILRHGKKVGFINLIKDGMKGVTVL
MGSDKIHHHHHHMSELTDLLLQGPRSAPELRQRLAISQATFSRLVAREDRVIRFGKARATRYALLRPYRGIERIPVWRVDDTGKAHKFADIRLCWPQGSCLVTGADGDEQWFDGLPWYLTDLRPQGFLGRAWGRKLAAQLNLTDDIRLWQEEDVLYALTVFNGEYTGGWLVGEGNYQRWITAQHPAEIPLDQKLTHYEQLASDALAGEIVGSSAGGEQPKFTYYAQTPSGNKHVLVKFTVPQQTAVSQRWGDLLIAESIAAQILRDGGIHAIESTVLVTSNRQVFLEAERFDCKGNDGRLPIVSLEAVQSEFISSPGSWPQAMRRLCEQQLVTHQSVAQTEVIWAFGRLIANSDMHAGNLSFYLSEPPFALTPVYDMLPMVYAPNSAGMLRDAAIEVKFDLNVSKSAWLTAIPLAQQFWQTVARDPRISEAFRHIAQEMPEKIRQIEEKVARMGG
MGSDKIHHHHHHMSESEYKIADGSGKFLQAVKDGRRMKDAQWSKGRILLSNKRIVLAGSEGKRNLPLSEVQGLSGRHDVNQTVAKVGNYVSIRMTNESVMLVSLGDNTETFESKLYGALLDQTELQVKHPAVEGGVVTDEQFERARIKVDESELSVAMSNGSFVSVELDDVGSAEAASLEVNGDTKPVLKVEHTVNRDTSVQTYFATDSHTASILESLLTKEAEKSQGSVELSETEKRVLMALYSGVSSFEIPDFLGMDVDEVESIFERLIEVDVLEEVRKRREVTMKTRGRNIASEAINEE
MGSDKIHHHHHHMSETTGLQLRSLIKASGDLEVSLVPVSIPEPGPDEVVVRVEATPINPSDLGLLFGAADMSSAKASGTPDAPVITAKVPEAAMKAMAGRLDESMPVGNEGAGTVIKAGSSDAAQALLGKTVAMIGGAMYAQYRLIKAADCLKLQDGTTAAEGASCFVNPLTALGMTETMKREGHKALVHTAAASNLGQMLNRICLKDGIDLVNIVRSEAQAKLLREIGAKYVVDSTAPTFLDDLTEALVKTGATIAFDAIGGGRLAGQILGCMEAAIGKTATGPYSRYGSNVLKQVYIYGSLDTKPTEIVRNFGFAWAAGGWLLFPFLQKIGAADAAKLRARVAAEIKTTFASRYTKVVSLKEALTLDAIAIYNKRATGEKYLIDPTK

Source: the DeepSol protein solubility set
